In patent US20030148958A1 (PROCTER AND GAMBLE, published 2003):
Where a chain is given by its changes, count along the chain named. Ends that are not written are not given here.

B1: SEQ ID NO 141 (peptide)
peptide: IVLSLDVPIGLLQILLEQARAAAREQATTNARILARV-NH2
B2: SEQ ID NO 135 (peptide)
peptide: IVLSLDVPIGLLQILLEQAARAAREQATTNARILARV-NH2
B3: SEQ ID NO 133 (peptide)
peptide: IVLSLDVPIGLLQILLEQRRAAREQATTNARILARV-NH2
B4: SEQ ID NO 122 (peptide)
peptide: IVLSLDVPIGLLQILLEQARAEAAREQATTNARILARV-NH2
B5: SEQ ID NO 138 (peptide)
peptide: IVLSLDVPIGLLQILLEQAAREQATTNARILARV-NH2
B6: SEQ ID NO 120 (peptide)
peptide: IVLSLEVPIGLLQILLEQARARAAREQATTNARILARV-NH2
B7: SEQ ID NO 124 (peptide)
peptide: IVLSLDVPIGLLQILLEQAKQEAAREQATTNARILARV-NH2
B8: SEQ ID NO 13 (peptide)
peptide: ZGPPISIDLPFQLLRKMIEIEKQEKEKQQATTNRLLLDTI
modifications: C-terminal amide
B9: SEQ ID NO 14 (peptide)
peptide: B8 peptide with T32N
modifications: C-terminal amide
B10: SEQ ID NO 15 (peptide)
peptide: B8 peptide with T31A, T32A, I40V
modifications: C-terminal amide
B11: SEQ ID NO 128 (peptide)
peptide: IVLSLDVPIGLLQILLEQTRARAAREQATTNARILARV-NH2
B12: SEQ ID NO 123 (peptide)
peptide: IVLSLDVPIGLLQILLEQARQEAAREQATTNARILARV-NH2
B13: SEQ ID NO 137 (peptide)
peptide: IVLSLDVPIGLLQILLEQRARAAREQATTNARILARV-NH2
B14: SEQ ID NO 139 (peptide)
peptide: IVLSLDVPIGLLQILLEQAAAREQATTNARILARV-NH2
B15: SEQ ID NO 134 (peptide)
peptide: IVLSLDVPIGLLQILLEQAAAAREQATTNARILARV-NH2
B16: SEQ ID NO 129 (peptide)
peptide: IVLSLDVPIGLLQILLEQTKARAAREQATTNARILARV-NH2

target: corticotropin releasing factor 1 receptor; experiment: cell-based or functional assay
For CRF1R Emax in this document: reference of the scale not given here.
For CRF2R Emax in this document: reference of the scale not given here.

Row | Binder | CRF1R EC50 [nM] | CRF1R Emax [%]
1 | B1 | > 100 | 7
2 | B2 | > 100 | 6
3 | B3 | > 100 | 4
4 | B4 | 1000 | 10.7
5 | B5 | > 100 | 5
6 | B6 | 100 | 7
7 | B7 | > 100 | 6
8 | B8 | 97.7 | 69
9 | B9 | 109 | 92
10 | B10 | 85.3 | 86
11 | B11 | > 100 | 8
12 | B12 | > 1000 | 9.6
13 | B13 | > 100 | 4
14 | B14 | > 100 | 4
15 | B15 | > 100 | 7
16 | B16 | > 100 | 

target: T1, corticotropin releasing factor 2 receptor; experiment: cell-based or functional assay
T1 sequence (Q13324 whole entry, species assumed, looked up): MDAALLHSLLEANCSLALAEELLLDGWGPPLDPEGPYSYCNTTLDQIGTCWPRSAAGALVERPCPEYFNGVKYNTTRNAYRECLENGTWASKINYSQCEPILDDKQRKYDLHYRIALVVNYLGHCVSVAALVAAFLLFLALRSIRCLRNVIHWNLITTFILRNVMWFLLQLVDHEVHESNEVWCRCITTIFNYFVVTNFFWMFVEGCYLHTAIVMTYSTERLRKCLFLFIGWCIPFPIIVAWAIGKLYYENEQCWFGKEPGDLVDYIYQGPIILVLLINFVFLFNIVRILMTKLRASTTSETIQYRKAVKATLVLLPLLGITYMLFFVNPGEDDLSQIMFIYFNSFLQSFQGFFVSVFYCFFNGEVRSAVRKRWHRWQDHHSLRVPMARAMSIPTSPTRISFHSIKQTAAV

Row | Binder | CRF2R EC50 [nM] | CRF2R Emax [%]
17 | B1 | > 100 | 29
18 | B2 | > 100 | 76
19 | B3 | 12.2 | 88
20 | B4 | 3.31 | 97
21 | B5 | 59 | 46
22 | B6 | 69.9 | 100
23 | B7 | 3.49 | 94
24 | B8 | 3.88 | 79
25 | B9 | 6.33 | 90
26 | B10 | 6.56 | 97
27 | B11 | 2.85 | 98
28 | B12 | 3.49 | 93.8
29 | B13 | 36.9 | 100
30 | B14 | 42.6 | 60
31 | B15 | > 100 | 19
32 | B16 | 3.83 | 
